Reference: US20150344570A1 (published 2015)

T1: FcγRIIa H (human, UniProt P12318 34-217)
T1 construct: extracellular domain; also called FcγRIIa type H; 2aH; not shown: His tag at the C terminus
T1 sequence (looked up): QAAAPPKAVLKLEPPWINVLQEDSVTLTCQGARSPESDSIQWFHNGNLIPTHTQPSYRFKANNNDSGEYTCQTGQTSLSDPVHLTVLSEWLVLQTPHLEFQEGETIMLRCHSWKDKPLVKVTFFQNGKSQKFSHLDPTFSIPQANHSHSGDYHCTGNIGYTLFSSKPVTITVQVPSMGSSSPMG

T2: FcγRIIb (human, UniProt P31994 43-217)
T2 construct: extracellular domain; also called 2b; not shown: His tag at the C terminus
T2 sequence (looked up): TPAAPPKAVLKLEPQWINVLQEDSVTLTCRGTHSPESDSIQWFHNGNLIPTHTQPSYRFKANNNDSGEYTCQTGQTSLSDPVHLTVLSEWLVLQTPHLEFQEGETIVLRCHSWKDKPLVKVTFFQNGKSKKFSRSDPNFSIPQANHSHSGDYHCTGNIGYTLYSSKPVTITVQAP

B1: GpH7-A5/GpH7-B3 variant L235_12R/GpL16-k0 (antibody, human IgG1, kappa)
heavy 1: not shown
heavy 2: not shown
light: DIVMTQSPLSLPVTPGEPASISCQASESLVHSNRNTYLHWYLQKPGQSPQLLIYKVSNRFSGVPDRFSGSGSGTDFTLKISRVEAEDVGVYYCSQNTHVPPTFGQGTKVEIERTVAAPSVFIFPPSDEQLKSGTASVVCLLNNFYPREAKVQWKVDNALQSGNSQESVTEQDSKDSTYSLSSTLTLSKADYEKHKVYACEVTHQGLSSPVTKSFNRGEC
notes: Heterodimerized IgG1; mutation in the GpH7-B3 chain only; also called He Ab
B2: GpH7-A5/GpH7-B3 variant L234_15Y/GpL16-k0 (antibody, human IgG1, kappa)
heavy 1: not shown
heavy 2: not shown
light: B1 light
notes: as for B1
B3: GpH7-A5/GpH7-B3 variant L234_12R/GpL16-k0 (antibody, human IgG1, kappa)
heavy 1: not shown
heavy 2: not shown
light: B1 light
notes: as for B1
B4: GpH7-A5/GpH7-B3 variant L234_11K/GpL16-k0 (antibody, human IgG1, kappa)
heavy 1: not shown
heavy 2: not shown
light: B1 light
notes: as for B1
B5: GpH7-A5/GpH7-B3 variant L234_04F/GpL16-k0 (antibody, human IgG1, kappa)
heavy 1: not shown
heavy 2: not shown
light: B1 light
notes: as for B1
B6: GpH7-A5/GpH7-B3 variant G236_14T/GpL16-k0 (antibody, human IgG1, kappa)
heavy 1: not shown
heavy 2: not shown
light: B1 light
notes: as for B1
B7: GpH7-A5/GpH7-B3 variant G236_07I/GpL16-k0 (antibody, human IgG1, kappa)
heavy 1: not shown
heavy 2: not shown
light: B1 light
notes: as for B1
B8: GpH7-A5/GpH7-B3 variant L234_13S/GpL16-k0 (antibody, human IgG1, kappa)
heavy 1: not shown
heavy 2: not shown
light: B1 light
notes: as for B1
B9: GpH7-A5/GpH7-B3 variant G236_05P/GpL16-k0 (antibody, human IgG1, kappa)
heavy 1: not shown
heavy 2: not shown
light: B1 light
notes: as for B1
B10: GpH7-A5/GpH7-B3 variant L234_02A/GpL16-k0 (antibody, human IgG1, kappa)
heavy 1: not shown
heavy 2: not shown
light: B1 light
notes: as for B1
B11: GpH7-A5/GpH7-B3 variant G236_06M/GpL16-k0 (antibody, human IgG1, kappa)
heavy 1: not shown
heavy 2: not shown
light: B1 light
notes: as for B1
B12: GpH7-A5/GpH7-B3 variant G236_03V/GpL16-k0 (antibody, human IgG1, kappa)
heavy 1: not shown
heavy 2: not shown
light: B1 light
notes: as for B1
B13: GpH7-A5/GpH7-B3 variant G236_15Y/GpL16-k0 (antibody, human IgG1, kappa)
heavy 1: not shown
heavy 2: not shown
light: B1 light
notes: as for B1
B14: GpH7-A5/GpH7-B3 variant L234_14T/GpL16-k0 (antibody, human IgG1, kappa)
heavy 1: not shown
heavy 2: not shown
light: B1 light
notes: as for B1
B15: GpH7-A5/GpH7-B3 variant L234_01G/GpL16-k0 (antibody, human IgG1, kappa)
heavy 1: not shown
heavy 2: not shown
light: B1 light
notes: as for B1
B16: GpH7-A5/GpH7-B3 variant G236_04F/GpL16-k0 (antibody, human IgG1, kappa)
heavy 1: not shown
heavy 2: not shown
light: B1 light
notes: as for B1
B17: GpH7-A5/GpH7-B3 variant G236_08L/GpL16-k0 (antibody, human IgG1, kappa)
heavy 1: not shown
heavy 2: not shown
light: B1 light
notes: as for B1

Molecular target: T1, FcγRIIa H
Experiment: SPR (Biacore); He/Con_2aH divided by He/Con_2b (FcγRIIa H over FcγRIIb)

He_2aH/2b (IIaH/IIb) | Binder
3.16 ratio | B1
1.25 ratio | B2
2.53 ratio | B3
2.52 ratio | B4
1.2 ratio | B5
1.79 ratio | B6
3.72 ratio | B7
1.36 ratio | B8
3.34 ratio | B9
1.25 ratio | B10
1.88 ratio | B11
3.39 ratio | B12
3.45 ratio | B13
1.25 ratio | B14
1.49 ratio | B15
3 ratio | B16
2.83 ratio | B17

Molecular target: T1, FcγRIIa H
Experiment: SPR (Biacore), antibody captured, FcγR as analyte; binding relative to GpH7-A5/GpH7-B3/GpL16-k0 = 100
Protocol: (§1) The heterodimerized antibodies He Abs in which one of the H chains was introduced with an alteration were assayed for their binding activities to each activating FcγR and inhibitory FcγR according to the method described in Example 4. […] The activating FcγRs in FIGS. 26, 27, 28, and 29 are FcγRIa, FcγRIIa (R), FcγRIIa (H), and FcγRIIIa, respectively.
(§2) Analysis of interaction between objective antibody and the FcγR was carried out using Biacore T100 (GE Healthcare). HBS-EP+ (GE Healthcare) was used as the running buffer, and the measurement temperature was set to 25° C. Chips produced by immobilizing the antigen peptide by the amine coupling method to a Series S Sencor Chip CM5 (GE Healthcare), or alternatively, chips produced by allowing preliminarily biotinylated antigen peptides to interact with and immobilize onto a Series S Sensor Chip SA (certified) (GE Healthcare) were used. Antibodies of interest were captured onto an antigen peptide-immobilized chip, and allowed to interact to each FcγR diluted with running buffer. To regenerate and repeatedly use the chip, the antibodies captured on the chip were washed off by reacting 10 mM glycine-HCl, pH 1.5.

He/Con_2aH | Binder
30.3 % of control | B1
120 % of control | B2
47.7 % of control | B3
40.8 % of control | B4
120 % of control | B5
103 % of control | B6
115 % of control | B7
80.4 % of control | B8
63.5 % of control | B9
81 % of control | B10
85.7 % of control | B11
119 % of control | B12
136 % of control | B13
78.1 % of control | B14
75.6 % of control | B15
118 % of control | B16
75.8 % of control | B17

Molecular target: T2, FcγRIIb
Experiment: as above
Protocol: as §1, §2

He/Con_2b | Binder
96.3 % of control | B2
18.9 % of control | B3
16.2 % of control | B4
99.8 % of control | B5
57.8 % of control | B6
31 % of control | B7
59.3 % of control | B8
19 % of control | B9
64.9 % of control | B10
45.5 % of control | B11
35.3 % of control | B12
39.5 % of control | B13
62.5 % of control | B14
50.7 % of control | B15
39.3 % of control | B16
26.8 % of control | B17
